# Test system: engineered chimeric receptor SEQ ID NO: 33 and its mutants (human α7-nAChR ligand binding domain / human GlyRα1 ion pore domain) in Lenti-X 293T cells
# Assay: YFP fluorescence quenching anion reporter plate reader assay (percent quench, EC50)
# Type: cell-based
# Settings: for YFP fluorescence quenching using CNL001 (percent quench): receptor named in row; for YFP fluorescence quenching using Varenicline, 3 nM var: ligand Varenicline 3 nM; for YFP fluorescence quenching using Varenicline, 30 nM var: ligand Varenicline 30 nM; for YFP fluorescence quenching using Varenicline, 300 nM var: ligand Varenicline 300 nM; for YFP fluorescence quenching using Varenicline, 500 nM var: ligand Varenicline 500 nM; for YFP fluorescence quenching using Varenicline, 1 uM var: ligand Varenicline 1 uM
# Method in brief: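 Lenti-X 293T cells co-expressing an anion-quenchable YFP were transiently transfected with receptor DNA, then ligand was added in NaI-substituted buffer (pH 7.2) after 30 min at 37 °C. Fluorescence was read about 2 min; percent quench = mean of last 10 s over 15 s pre-ligand baseline.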
molecule,measurement,setting,value
"CODA217: engineered receptor: W77F in SEQ ID NO: 33 (protein, synthetic sequence of chimeric LGIC) MRCSPGGVWLALAASLLHVSLQGEFQRKLYKELVKNYNPLERPVANDSQPLTVYFSLSLLQIMDVDEKNQVLTTNIFLQMSWTDHYLQWNVSEYPGVKTVRFPDGQIWKPDILLYNSADERFDATFHTNVLVNSSGHCQYLPPGIFKSSCPMDLKNFPMDVQTCKLKFGSWSYGGWSLDLQMQEADISGYIPNGEWDLVGIPGKRSERFYECCKEPYPDVTFTVTMRRRMGYYLIQMYIPSLLIVILSWISFWINMDAAPARVGLGITTVLTMTTQSSGSRASLPKVSYVKAIDIWMAVCLLFVFSALLEYAAVNFVSRQHKELLRFRRKRRHHKSPMLNLFQEDEAGEGRFNFSAYGMGPACLQAKDGISVKGANNSNTTNPPPAPSKSPEEMRKLFIQRAKKIDKISRIGFPMAFLIFNMFYWIIYKIVRREDVHNQ",YFP fluorescence quenching using CNL001 (percent quench),"1 nM CNL001, first column so headed",−22.273%
same,YFP fluorescence quenching using CNL001 (percent quench),"1 nM CNL001, second column so headed",−19.415%
same,YFP fluorescence quenching using TC-5619/Bradanicline (percent quench),3 nM brd (TC-5619/Bradanicline),−12.1%
same,YFP fluorescence quenching using CNL001 (percent quench),"10 nM CNL001, first column so headed",−9.563%
same,YFP fluorescence quenching using CNL001 (percent quench),"10 nM CNL001, second column so headed",6.398%
same,YFP fluorescence quenching using TC-5619/Bradanicline (percent quench),30 nM brd (TC-5619/Bradanicline),−14.72%
same,YFP fluorescence quenching using CNL001 (percent quench),"50 nM CNL001, first column so headed",61.938%
same,YFP fluorescence quenching using CNL001 (percent quench),"50 nM CNL001, second column so headed",66.837%
same,YFP fluorescence quenching using ABT-126 (percent quench),50 nM abt (ABT-126),37.81%
same,YFP fluorescence quenching using CNL001 (percent quench),"100 nM CNL001, first column so headed",79.791%
same,YFP fluorescence quenching using CNL001 (percent quench),"100 nM CNL001, second column so headed",80.908%
same,YFP fluorescence quenching (percent quench),100 nM CNL002,67.81%
same,YFP fluorescence quenching using ABT-126 (percent quench),100 nM abt (ABT-126),57.31%
same,YFP fluorescence quenching using AZD-0328 (percent quench),100 nM azd0328,−7.57%
same,YFP fluorescence quenching using ABT-126 (percent quench),300 nM abt (ABT-126),12.61%
same,YFP fluorescence quenching using AZD-0328 (percent quench),300 nM azd0328,7.08%
same,YFP fluorescence quenching using TC-5619/Bradanicline (percent quench),300 nM brd (TC-5619/Bradanicline),−6.3%
same,YFP fluorescence quenching using CNL001 (percent quench),"1 uM CNL001, first column so headed",83.444%
same,YFP fluorescence quenching using CNL001 (percent quench),"1 uM CNL001, second column so headed",83.905%
same,YFP fluorescence quenching (percent quench),1 uM CNL002,69.42%
same,YFP fluorescence quenching using ABT-126 (percent quench),1 uM abt (ABT-126),66.05%
same,YFP fluorescence quenching (percent quench),10 uM ach (acetylcholine),−5.86%
same,YFP fluorescence quenching (percent quench),30 uM CNL002,73.64%
same,YFP fluorescence quenching using AZD-0328 (percent quench),30 uM azd0328,81.59%
same,YFP fluorescence quenching (percent quench),100 uM ach (acetylcholine),70.06%
same,YFP fluorescence quenching (percent quench),1 mM ach (acetylcholine),68.71%
same,YFP fluorescence quenching (percent quench),3 mM ach (acetylcholine),73.45%
same,"YFP fluorescence quenching using Facinicline, 30 nM fac",ligand Facinicline 30 nM,−10.14
same,"YFP fluorescence quenching using Facinicline, 300 nM fac",ligand Facinicline 300 nM,68.29
same,"YFP fluorescence quenching using Facinicline, 30 uM fac",ligand Facinicline 30 uM,87.35
same,"YFP fluorescence quenching using TC-6987, 1 uM tc6987",ligand TC-6987 1 uM,−10.35
same,"YFP fluorescence quenching using TC-6987, 10 uM tc6987",ligand TC-6987 10 uM,−13.93
same,"YFP fluorescence quenching using TC-6987, 500 uM tc6987",ligand TC-6987 500 uM,−7.54
same,"YFP fluorescence quenching using Varenicline, 3 nM var",first column,5.662
same,"YFP fluorescence quenching using Varenicline, 3 nM var",second column,7.57
same,"YFP fluorescence quenching using Varenicline, 30 nM var",first column,13.968
same,"YFP fluorescence quenching using Varenicline, 30 nM var",second column,19.079
same,"YFP fluorescence quenching using Varenicline, 300 nM var",first column,16.183
same,"YFP fluorescence quenching using Varenicline, 300 nM var",second column,18.025
same,"YFP fluorescence quenching using Varenicline, 500 nM var",first column,23.366
same,"YFP fluorescence quenching using Varenicline, 500 nM var",second column,19.206
same,"YFP fluorescence quenching using Varenicline, 1 uM var",first column,34.69
same,"YFP fluorescence quenching using Varenicline, 1 uM var",second column,30.504
